{"source": "paper PMC4445282", "about": "“Alpha-L-Fucosidase Isoenzyme iso2 from Paenibacillus thiaminolyticus” (BMC Biotechnology, 2015)", "substrate": "C[C@@H]1O[C@@H](Oc2ccc([N+](=O)[O-])cc2)[C@@H](O)[C@H](O)[C@@H]1O", "assay": "purified protein", "assay_type": "biochemical, Paenibacillus thiaminolyticus", "conditions": "50 mM phosphate pH 7.0, 37 °C (standard assay), substrate 0.01-35 mmol/L", "data": [{"protein": "α-L-fucosidase iso2 (Paenibacillus thiaminolyticus) (protein, His-tagged fusion from pET16b-αLF2 (NdeI/XhoI), tag kept; E. coli BL21(DE3); Ni-NTA; primers encode start MRYRQVH and end VVEYNE) MRYRQVHLDFHTSEHISDIGRNFSKKNFQEMLQLGHVNSITVFAKCHHGWAYFPSATNEIHPRLDFDLLGAQIEAAHEIGVKVPIYISVGFDEKLAWEKPQWLMRDEADRMNWVDSFMKPGYHQFCLNTPYLDLVIEQVQEVVRKYDGDGIFLDIVGERTCYCTTCLKQMQADGLDPHNKEDVIANGRRIYANYTTRIREAIDAIKPGLPVFHNAGHIHQGRRDLMGMNSHLELESLPTGGWGYDHFPLSARYAQPTGFHFLGMTGKFHTFWGEFGGYKHPNALRYETALSLANGARCSIGDQLHPGGQMDRATYELIGKAYAEVEAKEAWCVNAVNLADVALLTVEAAGVQQESGAMYSGKVDMGAVRMLLEGKILFDIVDLESDWSGYKVLILPDSIVMKDTILPKVEAFLAAGGKVLASGRSGLNVELTRQMLPLGFTDSGLNPFRPDYFRPLCDGMANLGEAAYVMYGDGRRIELTDGTELGRREDPYFNRQAFRFCSHQHAPSSEQEGGPGMVESAQGIYIAWNVFEDYATKGSLILKEMVLFALRRLLGEQITLKTTLPAQGVTTLQHQAAERRYINHLLYASPVKRGERVEIIEDMIPLQQVEVQLQLPVTDVKRVYLAPQMTEIEFKASGGDVQFTVPQLECHQMVVVEYNE", "values": [{"measurement": "Km", "value": "520 ± 50", "unit": "µM"}, {"measurement": "kcat", "value": "111 ± 3", "unit": "s⁻¹"}, {"measurement": "kcat/Km", "value": "213 ± 30 (mmol/L)^-1 s^-1"}]}]}
